In patent US20240335558A1, “ISOLATED POLYPEPTIDE AND USE THEREOF” (GLYCO-THERAPY BIOTECHNOLOGY CO., LTD., priority 2021, published 2024):

Experiments:
Type in all cases: biochemical
[1] = tested on: Trastuzumab-(GalNAzβ1,4)GlcNAc; assay: HpFT-4HR and HFT6 transferring GDP-FAmP4Biotin to Trastuzumab-(GalNAzβ1,4)GlcNAc; settings: donor GDP-FAmP4Biotin 1 mM, enzyme 0.5 mg/mL, 30° C., 6 h; FIG. 5B
Description: Three parallels were set up for each group. After the reaction time point was reached, to the reaction solution was added 10 mM LacNAc, and the reaction was terminated by a desalting column (Zeba™ Spin Desalting Columns/2 ml/40K, Thermo Fisher Scientific), and finally mass spectrometry was carried out and % of conversion was calculated. […] For Trastuzumab-(GalNAzβ1,4)GlcNAc, % of conversion was calculated according to Example 18.

[2] = tested on: Trastuzumab-(GalNAzβ1,4)GlcNAc; assay: HpFT-2HR and HpFT-4HR transferring GDP-FAmP4Biotin or GDP-FAzP4Biotin to Trastuzumab-(GalNAzβ1,4)GlcNAc; settings: donor 1 mM, enzyme 0.5 mg/mL, 6 h; FIG. 6(B)
Description: To 40 mM Tris-HCl (pH 7.5) buffer were added Trastuzumab-(Fucα1,6)(Galβ1,4)GlcNAc (2 mg/mL final), GDP-FAmP4Biotin (1 mM final), MgCl2 (20 mM final), and different HpFT enzymes (HpFT-4HR, HpFT-4HR(M4), HpFT-4HR(M7), HpFT-6HR, HpFT-3HR, HpFT-2HR, HpFT-1HR or HpFT-0HR) (0.5 mg/mL final) in sequence, and the resulting mixed solution was allowed to react at 30° C. for 1 h. Three parallels were set up for each group. After the reaction time point was reached, to the reaction solution was added 10 mM LacNA, and the reaction was terminated by a desalting column (Zeba™ Spin Desalting Columns/2 ml/40K, Thermo Fisher Scientific), and finally mass spectrometry was carried out and % of conversion was calculated. % of conversion=(MAR0 peak intensity*0+MAR1peak intensity*1+MAR2 peak intensity*2)/2* (MAR0 peak intensity+MAR1 peak intensity+MAR2 peak intensity)*100%.
(§1) To 40 mM Tris-HCl (pH 7.5) buffer were added Trastuzumab-(GalNAzβ1,4)GlcNAc (2 mg/mL final), GDP-FAmP4Biotin or GDP-FAzP4Biotin (1 mM final), MgCl2 (20 mM final), and HpFT-2HR or HpFT-4HR (0.5 mg/mL final) in sequence, and the resulting mixed solution was allowed to react at 30 t for 6 h. Three parallels were set up for each group. After the reaction time point was reached, to the reaction solution was added 10 mM LacNAc, and the reaction was terminated by a desalting column (Zeba™ Spin Desalting Columns/2 ml/40K, Thermo Fisher Scientific), and finally mass spectrometry was carried out and % of conversion was calculated. % of conversion was calculated according to Example 18.

Trastuzumab-G2F [3] = assay: HpFT-2HR and HpFT-4HR transferring GDP-FAmP4Biotin or GDP-FAzP4Biotin to Trastuzumab-G2F; settings: donor 1 mM, enzyme 0.5 mg/mL, 30° C., 6 h; FIG. 6(A)
Description: To 40 mM Tris-HCl (pH 7.5) buffer were added Trastuzumab-G2F (2 mg/mL final), GDP-FAmP4Biotin (1 mM final), MgCl2 (20 mM final), and different HpFT enzymes (HpFT-4HR, HpFT-4HR(M4), HpFT-4HR(M7), HpFT-6HR, HpFT-3HR, HpFT-2HR, HpFT-1HR, or HpFT-0HR) (0.5 mg/mL final) in sequence, and the resulting mixed solution was allowed to react at 30° C. for 3 h. Three parallels were set up for each group. After the reaction time point was reached, to the reaction solution was added 10 mM LacNAc (N-acetyl-D-lactosamine), and the reaction was terminated by a desalting column (Zeba™ Spin Desalting Columns/2 ml/40K, Thermo Fisher Scientific), and finally mass spectrometry was carried out and % of conversion was calculated. % of conversion=(MAR0 peak intensity*0+MAR1peak intensity*1+MAR2 peak intensity*2+MAR3 peak intensity*3+MAR4 peak intensity*4)/4* (MAR0 peak intensity+MAR1 peak intensity+MAR2 peak intensity+MAR3 peak intensity+MAR4 peak intensity)*100%.
as §1, with “Trastuzumab-G2F” for “Trastuzumab-(GalNAzβ1,4)GlcNAc”, “30° C.” for “30 t”, “17.” for “18.”

Trastuzumab-G2F [4] = assay: HpFT-4HR and HFT6 transferring GDP-FAmP4Biotin to Trastuzumab-G2F; settings: donor GDP-FAmP4Biotin 1 mM, enzyme 0.5 mg/mL, 30° C., 6 h; FIG. 5A

B1: HpFT-4HR: reported α-1,3 fucosyltransferase (Wu P. et al.): catalytically active domain, four heptapeptide repeat sequences, C-terminus His tag (protein)
chain: MFQPLLDAFIESASIEKMVSKSPPPPLKIAVANWWGDEEIKEFKKSVLYFILSQRYAITLHQNPNESSDLVFSNPLGAARKILSYQNTKRVFYTGENESPNFNLFDYAIGFDELDFNDRYLRMPLYYAHLHYEAELVNDTTAPYKLKDNSLYALKKPSHHFKENHPNLCAVVNDESDLLKRGFASFVASNANAPMRNAFYDALNSIEPVTGGGSVRNTLGYKVGNKSEFLSQYKFNLCFENSQGYGYVTEKILDAYFSHTIPIYWGSPSVAKDFNPKSFVNVHDFNNFDEAIDYIKYLHTHPNAYLDMLYENPLNTLDGKAYFYQDLSFKKILDFFKTILENDTIYHNNPFIFYRDLHEPLISIDDLRVNYDDLRVNYDDLRVNYDDLRVNYLEHHHHHH
modifications: Catalytically active domain of Helicobacter pylori Alpha-(1,3)-fucosyltransferase (GenBank No.AAD07710.1) with 4 heptapeptide repeats and a C-terminal His tag
catalytic activity (% of conversion), HpFT-4HR versus HFT6 [1]: much higher than that of human-derived fucosyltransferase HFT6
activity in catalyzing the transfer of GDP-FAmP4Biotin relative to transfer of GDP-FAzP4Biotin [2]: significantly higher
activity in catalyzing the transfer of GDP-FAmP4Biotin relative to transfer of GDP-FAzP4Biotin (Trastuzumab-G2F [3]): significantly higher
catalytic activity (% of conversion), HpFT-4HR versus HFT6 (Trastuzumab-G2F [4]): much higher than that of human-derived fucosyltransferase HFT6
